How the values were obtained:
[1] = target: T1, human activated protein C (human, UniProt P04070 43-197; P04070 212-461); test: cell-based or functional assay
[2] = target: T1, human activated protein C; test: cell-based or functional assay; remark: listed apart in the source

T1 sequence (P04070 43-197, chain 1 of 2): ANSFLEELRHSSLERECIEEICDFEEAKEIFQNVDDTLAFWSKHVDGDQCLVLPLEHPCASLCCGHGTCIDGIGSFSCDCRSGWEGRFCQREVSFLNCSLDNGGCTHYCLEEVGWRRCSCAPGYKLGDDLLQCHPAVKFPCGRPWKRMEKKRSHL
T1 sequence (P04070 212-461, chain 2 of 2): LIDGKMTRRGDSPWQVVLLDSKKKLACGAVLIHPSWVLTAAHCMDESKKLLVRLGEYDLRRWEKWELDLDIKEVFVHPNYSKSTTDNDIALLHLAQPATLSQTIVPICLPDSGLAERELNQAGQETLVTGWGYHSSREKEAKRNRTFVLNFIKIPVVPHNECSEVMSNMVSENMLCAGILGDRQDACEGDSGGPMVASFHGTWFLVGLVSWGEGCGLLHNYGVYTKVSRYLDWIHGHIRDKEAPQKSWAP

Row | Binder | Inactivation (nM FVIIIa/min/nM APC) [1] | fold reduction of inactivation rate compared to WT factor VIIIa [2] | fold increase of rate of generation of the A2c fragment compared with WT factor VIII [2]
1 | WT factor VIIIa (B-domainless recombinant human factor VIII activated by thrombin) (other) chain 1: ATRRYYLGAVELSWDYMQSDLGELPVDARFPPRVPKSFPFNTSVVYKKTLFVEFTVHLFNIAKPRPPWMGLLGPTIQAEVYDTVVITLKNMASHPVSLHAVGVSYWKASEGAEYDDQTSQREKEDDKVFPGGSHTYVWQVLKENGPMASDPLCLTYSYLSHVDLVKDLNSGLIGALLVCREGSLAKEKTQTLHKFILLFAVFDEGKSWHSETKNSLMQDRDAASARAWPKMHTVNGYVNRSLPGLIGCHRKSVYWHVIGMGTTPEVHSIFLEGHTFLVRNHRQASLEISPITFLTAQTLLMDLGQFLLFCHISSHQHDGMEAYVKVDSCPEEPQLRMKNNEEAEDYDDDLTDSEMDVVRFDDDNSPSFIQIR chain 2: SVAKKHPKTWVHYIAAEEEDWDYAPLVLAPDDRSYKSQYLNNGPQRIGRKYKKVRFMAYTDETFKTREAIQHESGILGPLLYGEVGDTLLIIFKNQASRPYNIYPHGITDVRPLYSRRLPKGVKHLKDFPILPGEIFKYKWTVTVEDGPTKSDPRCLTRYYSSFVNMERDLASGLIGPLLICYKESVDQRGNQIMSDKRNVILFSVFDENRSWYLTENIQRFLPNPAGVQLEDPEFQASNIMHSINGYVFDSLQLSVCLHEVAYWYILSIGAQTDFLSVFFSGYTFKHKMVYEDTLTLFPFSGETVFMSMENPGLWILGCHNSDFRNRGMTALLKVSSCDKNTGDYYEDSYEDISAYLLSKNNAIEPR chain 3: SFQKKTRHYFIAAVERLWDYGMSSSPHVLRNRAQSGSVPQFKKVVFQEFTDGSFTQPLYRGELNEHLGLLGPYIRAEVEDNIMVTFRNQASRPYSFYSSLISYEEDQRQGAEPRKNFVKPNETKTYFWKVQHHMAPTKDEFDCKAWAYFSDVDLEKDVHSGLIGPLLVCHTNTLNPAHGRQVTVQEFALFFTIFDETKSWYFTENMERNCRAPCNIQMEDPTFKENYRFHAINGYIMDTLPGLVMAQDQRIRWYLLSMGSNENIHSIHFSGHVFTVRKKEEYKMALYNLYPGVFETVEMLPSKAGIWRVECLIGEHLHAGMSTLFLVYSNKCQTPLGMASGHIRDFQITASGQYGQWAPKLARLHYSGSINAWSTKEPFSWIKVDLLAPMIIHGIKTQGARQKFSSLYISQFIIMYSLDGKKWQTYRGNSTGTLMVFFGNVDSSGIKHNIFNPPIIARYIRLHPTHYSIRSTLRMELMGCDLNSCSMPLGMESKAISDAQITASSYFTNMFATWSPSKARLHLQGRSNAWRPQVNNPKEWLQVDFQKTMKVTGVTTQGVKSLLTSMYVKEFLISSSQDGHQWTLFFQNGKVKVFQGNQDSFTPVVNSLDPPLLTRYLRIHPQSWVHQIALRMEVLGCEAQDLY | 5.4 nM FVIIIa/min/nM APC |  | 
2 | 336(P1′-P3′)562 factor VIIIa mutant (other) chain 1: ATRRYYLGAVELSWDYMQSDLGELPVDARFPPRVPKSFPFNTSVVYKKTLFVEFTVHLFNIAKPRPPWMGLLGPTIQAEVYDTVVITLKNMASHPVSLHAVGVSYWKASEGAEYDDQTSQREKEDDKVFPGGSHTYVWQVLKENGPMASDPLCLTYSYLSHVDLVKDLNSGLIGALLVCREGSLAKEKTQTLHKFILLFAVFDEGKSWHSETKNSLMQDRDAASARAWPKMHTVNGYVNRSLPGLIGCHRKSVYWHVIGMGTTPEVHSIFLEGHTFLVRNHRQASLEISPITFLTAQTLLMDLGQFLLFCHISSHQHDGMEAYVKVDSCPEEPQLRGNQNEEAEDYDDDLTDSEMDVVRFDDDNSPSFIQIR chain 2: SVAKKHPKTWVHYIAAEEEDWDYAPLVLAPDDRSYKSQYLNNGPQRIGRKYKKVRFMAYTDETFKTREAIQHESGILGPLLYGEVGDTLLIIFKNQASRPYNIYPHGITDVRPLYSRRLPKGVKHLKDFPILPGEIFKYKWTVTVEDGPTKSDPRCLTRYYSSFVNMERDLASGLIGPLLICYKESVDQRGNQIMSDKRNVILFSVFDENRSWYLTENIQRFLPNPAGVQLEDPEFQASNIMHSINGYVFDSLQLSVCLHEVAYWYILSIGAQTDFLSVFFSGYTFKHKMVYEDTLTLFPFSGETVFMSMENPGLWILGCHNSDFRNRGMTALLKVSSCDKNTGDYYEDSYEDISAYLLSKNNAIEPR chain 3: SFQKKTRHYFIAAVERLWDYGMSSSPHVLRNRAQSGSVPQFKKVVFQEFTDGSFTQPLYRGELNEHLGLLGPYIRAEVEDNIMVTFRNQASRPYSFYSSLISYEEDQRQGAEPRKNFVKPNETKTYFWKVQHHMAPTKDEFDCKAWAYFSDVDLEKDVHSGLIGPLLVCHTNTLNPAHGRQVTVQEFALFFTIFDETKSWYFTENMERNCRAPCNIQMEDPTFKENYRFHAINGYIMDTLPGLVMAQDQRIRWYLLSMGSNENIHSIHFSGHVFTVRKKEEYKMALYNLYPGVFETVEMLPSKAGIWRVECLIGEHLHAGMSTLFLVYSNKCQTPLGMASGHIRDFQITASGQYGQWAPKLARLHYSGSINAWSTKEPFSWIKVDLLAPMIIHGIKTQGARQKFSSLYISQFIIMYSLDGKKWQTYRGNSTGTLMVFFGNVDSSGIKHNIFNPPIIARYIRLHPTHYSIRSTLRMELMGCDLNSCSMPLGMESKAISDAQITASSYFTNMFATWSPSKARLHLQGRSNAWRPQVNNPKEWLQVDFQKTMKVTGVTTQGVKSLLTSMYVKEFLISSSQDGHQWTLFFQNGKVKVFQGNQDSFTPVVNSLDPPLLTRYLRIHPQSWVHQIALRMEVLGCEAQDLY | 0.9 nM FVIIIa/min/nM APC | 6 to 11 fold | 
3 | 562(P4-P2)336 factor VIII mutant (procofactor) (other) chain 1: ATRRYYLGAVELSWDYMQSDLGELPVDARFPPRVPKSFPFNTSVVYKKTLFVEFTVHLFNIAKPRPPWMGLLGPTIQAEVYDTVVITLKNMASHPVSLHAVGVSYWKASEGAEYDDQTSQREKEDDKVFPGGSHTYVWQVLKENGPMASDPLCLTYSYLSHVDLVKDLNSGLIGALLVCREGSLAKEKTQTLHKFILLFAVFDEGKSWHSETKNSLMQDRDAASARAWPKMHTVNGYVNRSLPGLIGCHRKSVYWHVIGMGTTPEVHSIFLEGHTFLVRNHRQASLEISPITFLTAQTLLMDLGQFLLFCHISSHQHDGMEAYVKVDSCPEEPQLRMKNNEEAEDYDDDLTDSEMDVVRFDDDNSPSFIQIRSVAKKHPKTWVHYIAAEEEDWDYAPLVLAPDDRSYKSQYLNNGPQRIGRKYKKVRFMAYTDETFKTREAIQHESGILGPLLYGEVGDTLLIIFKNQASRPYNIYPHGITDVRPLYSRRLPKGVKHLKDFPILPGEIFKYKWTVTVEDGPTKSDPRCLTRYYSSFVNMERDLASGLIGPLLICYKESPQLRGNQIMSDKRNVILFSVFDENRSWYLTENIQRFLPNPAGVQLEDPEFQASNIMHSINGYVFDSLQLSVCLHEVAYWYILSIGAQTDFLSVFFSGYTFKHKMVYEDTLTLFPFSGETVFMSMENPGLWILGCHNSDFRNRGMTALLKVSSCDKNTGDYYEDSYEDISAYLLSKNNAIEPR chain 2: SFQKKTRHYFIAAVERLWDYGMSSSPHVLRNRAQSGSVPQFKKVVFQEFTDGSFTQPLYRGELNEHLGLLGPYIRAEVEDNIMVTFRNQASRPYSFYSSLISYEEDQRQGAEPRKNFVKPNETKTYFWKVQHHMAPTKDEFDCKAWAYFSDVDLEKDVHSGLIGPLLVCHTNTLNPAHGRQVTVQEFALFFTIFDETKSWYFTENMERNCRAPCNIQMEDPTFKENYRFHAINGYIMDTLPGLVMAQDQRIRWYLLSMGSNENIHSIHFSGHVFTVRKKEEYKMALYNLYPGVFETVEMLPSKAGIWRVECLIGEHLHAGMSTLFLVYSNKCQTPLGMASGHIRDFQITASGQYGQWAPKLARLHYSGSINAWSTKEPFSWIKVDLLAPMIIHGIKTQGARQKFSSLYISQFIIMYSLDGKKWQTYRGNSTGTLMVFFGNVDSSGIKHNIFNPPIIARYIRLHPTHYSIRSTLRMELMGCDLNSCSMPLGMESKAISDAQITASSYFTNMFATWSPSKARLHLQGRSNAWRPQVNNPKEWLQVDFQKTMKVTGVTTQGVKSLLTSMYVKEFLISSSQDGHQWTLFFQNGKVKVFQGNQDSFTPVVNSLDPPLLTRYLRIHPQSWVHQIALRMEVLGCEAQDLY |  |  | 6 fold
4 | 562(P4-P3′)336 factor VIII mutant (procofactor) (other) chain 1: ATRRYYLGAVELSWDYMQSDLGELPVDARFPPRVPKSFPFNTSVVYKKTLFVEFTVHLFNIAKPRPPWMGLLGPTIQAEVYDTVVITLKNMASHPVSLHAVGVSYWKASEGAEYDDQTSQREKEDDKVFPGGSHTYVWQVLKENGPMASDPLCLTYSYLSHVDLVKDLNSGLIGALLVCREGSLAKEKTQTLHKFILLFAVFDEGKSWHSETKNSLMQDRDAASARAWPKMHTVNGYVNRSLPGLIGCHRKSVYWHVIGMGTTPEVHSIFLEGHTFLVRNHRQASLEISPITFLTAQTLLMDLGQFLLFCHISSHQHDGMEAYVKVDSCPEEPQLRMKNNEEAEDYDDDLTDSEMDVVRFDDDNSPSFIQIRSVAKKHPKTWVHYIAAEEEDWDYAPLVLAPDDRSYKSQYLNNGPQRIGRKYKKVRFMAYTDETFKTREAIQHESGILGPLLYGEVGDTLLIIFKNQASRPYNIYPHGITDVRPLYSRRLPKGVKHLKDFPILPGEIFKYKWTVTVEDGPTKSDPRCLTRYYSSFVNMERDLASGLIGPLLICYKESPQLRMKNIMSDKRNVILFSVFDENRSWYLTENIQRFLPNPAGVQLEDPEFQASNIMHSINGYVFDSLQLSVCLHEVAYWYILSIGAQTDFLSVFFSGYTFKHKMVYEDTLTLFPFSGETVFMSMENPGLWILGCHNSDFRNRGMTALLKVSSCDKNTGDYYEDSYEDISAYLLSKNNAIEPR chain 2: SFQKKTRHYFIAAVERLWDYGMSSSPHVLRNRAQSGSVPQFKKVVFQEFTDGSFTQPLYRGELNEHLGLLGPYIRAEVEDNIMVTFRNQASRPYSFYSSLISYEEDQRQGAEPRKNFVKPNETKTYFWKVQHHMAPTKDEFDCKAWAYFSDVDLEKDVHSGLIGPLLVCHTNTLNPAHGRQVTVQEFALFFTIFDETKSWYFTENMERNCRAPCNIQMEDPTFKENYRFHAINGYIMDTLPGLVMAQDQRIRWYLLSMGSNENIHSIHFSGHVFTVRKKEEYKMALYNLYPGVFETVEMLPSKAGIWRVECLIGEHLHAGMSTLFLVYSNKCQTPLGMASGHIRDFQITASGQYGQWAPKLARLHYSGSINAWSTKEPFSWIKVDLLAPMIIHGIKTQGARQKFSSLYISQFIIMYSLDGKKWQTYRGNSTGTLMVFFGNVDSSGIKHNIFNPPIIARYIRLHPTHYSIRSTLRMELMGCDLNSCSMPLGMESKAISDAQITASSYFTNMFATWSPSKARLHLQGRSNAWRPQVNNPKEWLQVDFQKTMKVTGVTTQGVKSLLTSMYVKEFLISSSQDGHQWTLFFQNGKVKVFQGNQDSFTPVVNSLDPPLLTRYLRIHPQSWVHQIALRMEVLGCEAQDLY |  |  | 27 fold

From US20090118185A1 (UNIVERSITY OF ROCHESTER, published 2009)
